Substitutions are numbered along the chain they refer to. Non-standard residues stand in square brackets, D forms with d. Phe(4-Ac) = CC(=O)c1ccc(C[C@H](N)C(=O)O)cc1
T1: human β-klotho with a C-terminal FLAG tag, stably expressed in a clonal HEK-293 cell line (human, UniProt Q86Z14 1-1044)
T1 sequence: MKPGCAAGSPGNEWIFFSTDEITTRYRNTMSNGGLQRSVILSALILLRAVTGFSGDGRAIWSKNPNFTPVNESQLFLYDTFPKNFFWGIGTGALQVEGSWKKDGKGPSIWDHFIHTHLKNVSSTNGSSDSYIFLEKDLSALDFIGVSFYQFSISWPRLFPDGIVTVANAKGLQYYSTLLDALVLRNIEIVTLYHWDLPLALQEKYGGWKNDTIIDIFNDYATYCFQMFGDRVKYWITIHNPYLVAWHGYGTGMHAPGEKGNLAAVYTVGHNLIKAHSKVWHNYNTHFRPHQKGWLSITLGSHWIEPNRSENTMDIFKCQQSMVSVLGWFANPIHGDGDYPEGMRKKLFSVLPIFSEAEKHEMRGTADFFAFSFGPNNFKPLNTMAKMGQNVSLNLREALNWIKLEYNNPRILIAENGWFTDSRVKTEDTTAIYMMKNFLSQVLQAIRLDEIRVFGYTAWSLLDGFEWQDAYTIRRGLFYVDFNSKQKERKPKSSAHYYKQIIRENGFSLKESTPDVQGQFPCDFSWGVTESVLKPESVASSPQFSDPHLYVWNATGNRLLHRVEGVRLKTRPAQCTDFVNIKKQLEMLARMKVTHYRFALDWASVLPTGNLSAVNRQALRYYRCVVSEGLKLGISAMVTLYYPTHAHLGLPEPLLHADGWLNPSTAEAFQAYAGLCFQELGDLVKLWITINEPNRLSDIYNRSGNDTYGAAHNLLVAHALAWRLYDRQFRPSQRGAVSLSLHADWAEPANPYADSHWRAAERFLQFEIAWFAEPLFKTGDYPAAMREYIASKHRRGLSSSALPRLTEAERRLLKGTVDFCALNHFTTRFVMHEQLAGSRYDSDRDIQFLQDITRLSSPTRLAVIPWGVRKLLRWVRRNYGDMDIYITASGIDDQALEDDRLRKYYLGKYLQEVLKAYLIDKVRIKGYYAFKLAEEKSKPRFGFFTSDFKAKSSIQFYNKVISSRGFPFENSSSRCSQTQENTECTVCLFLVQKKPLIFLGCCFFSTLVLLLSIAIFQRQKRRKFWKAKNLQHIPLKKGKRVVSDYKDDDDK

B1: Compound 2 (ligand)
chain: MHPIPDSSPLLQFGGQVRQRYLYTDDAQQTEAHLEIREDGTVGGAADQSPESLLQLKALKPGVIQILGVKTSRFLCQRPDGALYGSLHFDPEACSFRELLLEDGYNVYQSEAHGLPLHLGSGRGPARFLPLPGLPPAPPEPPGILAPQPPDVGSSDPLSMVEPSQGRSPSYAS
B2: Compound 3 (ligand)
chain: MHPIPDSSPLLQFGGQVRQRYLYTDDAQQTEAHLEIREDGTVGGAADQSPESLLQLKALKPGVIQILGVKTSRFLCQRPDGALYGSLHFDPEACSFRELLLEDGYNVYQSEAHGLPLHLPGNKSPHRDPAPRGPARFLPLPGLPPAPPEPPGILAPQPPDVGSSDPLSMVEPSQGRSPSYAS
B3: Compound 7 (ligand)
chain: B2 chain with N122D
B4: Compound 10 (ligand)
chain: MHPIPDSSPLLQFGGQVRQRYLYTDDAQQTEAHLEIREDGTVGGAADQSPESLLQLKALKPGVIQILGVKTSRFLCQRPDGALYGSLHFDPEACSFRELLLEDGYNVYQSEAHGLPLHLGSGGPARFLPLPGLPPAPPEPPGILAPQPPDVGSSDPLSMVEPSQGRSPSYAS
B5: Compound 11 (ligand)
chain: MHPIPDSSPLLQFGGQVRQRYLYTDDAQQTEAHLEIREDGTVGGAADQSPESLLQLKALKPGVIQILGVKTSRFLCQRPDGALYGSLHFDPEACSFRELLLEDGYNVYQSEAHGLPLHLGSGHRDPAPRGPARFLPLPGLPPAPPEPPGILAPQPPDVGSSDPLSMVEPSQGRSPSYAS
B6: Compound 22 (ligand)
chain: MHPIPDSSPLLQFGGQVRQRYLYTDDAQQTEAHLEIREDGTVGGAADQSPESLLQLKALKPGVIQILGVKTSRFLCQRPDGALYGSLHFDPEACSFRELLLEDGYNVYQSEAHGLPLHLSGGPAPRGPARFLPLPGLPPAPPEPPGILAPQPPDVGSSDPLSMVEPSQGRSPSYAS
B7: Compound 19 (ligand)
chain: MHPIPDSSPLLQFGGQVRQRYLYTDDAQQTEAHLEIREDGTVGGAADQSPESLLQLKALKPGVIQILGVKTSRFLCQRPDGALYGSLHFDPEACSFRELLLEDGYNVYQSEAHGLPLHLGSGPHRDPAPRGPARFLPLPGLPPAPPEPPGILAPQPPDVGSSDPLSMVEPSQGRSPSYAS
B8: Compound 6 (ligand)
chain: B7 chain with G120P, S121G, G122H, P123K, H124S
B9: Compound 5 (ligand)
chain: B7 chain with G120P, S121G, G122D, P123K, H124S
B10: Compound 12 (ligand)
chain: B7 chain with G120P, S121H, G122H, P123S, H124G
B11: Compound 23 (ligand)
chain: MHPIPDSSPLLQFGGQVRQRYLYTDDAQQTEAHLEIREDGTVGGAADQSPESLLQLKALKPGVIQILGVKTSRFLCQRPDGALYGSLHFDPEACSFRELLLEDGYNVYQSEAHGLPLHLGGGPARFLPLPGLPPAPPEPPGILAPQPPDVGSSDPLSMVEPSQGRSPSYAS
B12: Compound 20 (ligand)
chain: MHPIPDSSPLLQFGGQVRQRYLYTDDAQQTEAHLEIREDGTVGGAADQSPESLLQLKALKPGVIQILGVKTSRFLCQRPDGALYGSLHFDPEACSFRELLLEDGYNVYQSEAHGLPLHLGGHRDPAPRGPARFLPLPGLPPAPPEPPGILAPQPPDVGSSDPLSMVEPSQGRSPSYAS
B13: Pegylated Compound 22 (ligand)
chain: MHPIPDSSPLLQFGGQVRQRYLYTDDAQQTEAHLEIREDGTVGGAADQSPESLLQLKALKPGVIQILGVKTSRFLCQRPDGALYGSLHFDPEACSFRELLLEDGYNVY[Phe(4-Ac)](PEG 30 kDa)SEAHGLPLHLSGGPAPRGPARFLPLPGLPPAPPEPPGILAPQPPDVGSSDPLSMVEPSQGRSPSYAS
B14: Pegylated Compound 10 (ligand)
chain: MHPIPDSSPLLQFGGQVRQRYLYTDDAQQTEAHLEIREDGTVGGAADQSPESLLQLKALKPGVIQILGVKTSRFLCQRPDGALYGSLHFDPEACSFRELLLEDGYNVY[Phe(4-Ac)](PEG about 30 kDa)SEAHGLPLHLGSGGPARFLPLPGLPPAPPEPPGILAPQPPDVGSSDPLSMVEPSQGRSPSYAS
B15: Pegylated Compound 19 (ligand)
chain: MHPIPDSSPLLQFGGQVRQRYLYTDDAQQTEAHLEIREDGTVGGAADQSPESLLQLKALKPGVIQILGVKTSRFLCQRPDGALYGSLHFDPEACSFRELLLEDGYNVY[Phe(4-Ac)](PEG about 30 kDa)SEAHGLPLHLGSGPHRDPAPRGPARFLPLPGLPPAPPEPPGILAPQPPDVGSSDPLSMVEPSQGRSPSYAS
B16: Pegylated Compound 5 (ligand)
chain: MHPIPDSSPLLQFGGQVRQRYLYTDDAQQTEAHLEIREDGTVGGAADQSPESLLQLKALKPGVIQILGVKTSRFLCQRPDGALYGSLHFDPEACSFRELLLEDGYNVY[Phe(4-Ac)](PEG 30 kDa)SEAHGLPLHLPGDKSRDPAPRGPARFLPLPGLPPAPPEPPGILAPQPPDVGSSDPLSMVEPSQGRSPSYAS
B17: Pegylated Compound 11 (ligand)
chain: MHPIPDSSPLLQFGGQVRQRYLYTDDAQQTEAHLEIREDGTVGGAADQSPESLLQLKALKPGVIQILGVKTSRFLCQRPDGALYGSLHFDPEACSFRELLLEDGYNVY[Phe(4-Ac)](PEG about 30 kDa)SEAHGLPLHLGSGHRDPAPRGPARFLPLPGLPPAPPEPPGILAPQPPDVGSSDPLSMVEPSQGRSPSYAS
B18: Pegylated Compound 12 (ligand)
chain: MHPIPDSSPLLQFGGQVRQRYLYTDDAQQTEAHLEIREDGTVGGAADQSPESLLQLKALKPGVIQILGVKTSRFLCQRPDGALYGSLHFDPEACSFRELLLEDGYNVY[Phe(4-Ac)](PEG about 30 kDa)SEAHGLPLHLPHHSGRDPAPRGPARFLPLPGLPPAPPEPPGILAPQPPDVGSSDPLSMVEPSQGRSPSYAS
B19: Pegylated Compound 6 (ligand)
chain: MHPIPDSSPLLQFGGQVRQRYLYTDDAQQTEAHLEIREDGTVGGAADQSPESLLQLKALKPGVIQILGVKTSRFLCQRPDGALYGSLHFDPEACSFRELLLEDGYNVY[Phe(4-Ac)](PEG 30 kDa)SEAHGLPLHLPGHKSRDPAPRGPARFLPLPGLPPAPPEPPGILAPQPPDVGSSDPLSMVEPSQGRSPSYAS
B20: Pegylated Compound 21 (ligand)
chain: MHPIPDSSPLLQFGGQVRQRYLYTDDAQQTEAHLEIREDGTVGGAADQSPESLLQLKALKPGVIQILGVKTSRFLCQRPDGALYGSLHFDPEACSFRELLLEDGYNVY[Phe(4-Ac)](PEG about 30 kDa)SEAHGLPLHLGSGRDPAPRGPARFLPLPGLPPAPPEPPGILAPQPPDVGSSDPLSMVEPSQGRSPSYAS
B21: Pegylated Compound 20 (ligand)
chain: MHPIPDSSPLLQFGGQVRQRYLYTDDAQQTEAHLEIREDGTVGGAADQSPESLLQLKALKPGVIQILGVKTSRFLCQRPDGALYGSLHFDPEACSFRELLLEDGYNVY[Phe(4-Ac)](PEG about 30 kDa)SEAHGLPLHLGGHRDPAPRGPARFLPLPGLPPAPPEPPGILAPQPPDVGSSDPLSMVEPSQGRSPSYAS

Target: T1, human β-klotho with a C-terminal FLAG …
Test: cell-based or functional assay

Binder	pERK EC50 [nM]
B1	4.6
B2	28
B3	28.4
B4	21.9
B5	28.2
B6	4.1
B7	5.1
B8	39.1
B9	69.2
B10	31.9
B11	30
B12	3.9

Target: T1, human β-klotho with a C-terminal FLAG …
Test: cell-based or functional assay
Remark: another data set of the same source

Binder	EC50 in the pERK assay [nM]
B13	36
B14	28
B15	30
B16	24
B17	30
B18	39
B19	20
B20	30
B21	42
